Results taken from patent US20220177587A1, “METHODS AND USES OF VARIANT CD80 FUSION PROTEINS AND RELATED CONSTRUCTS” (Alpine Immune Sciences, Inc., priority 2018, published 2022).

Assays:
CD28 (human) [1] = molecular target: CD28 (human) (UniProt P10747)
CD28 (human) [2] = molecular target: CD28 (human) (UniProt P10747); test: flow cytometry, Jurkat cells (CD28)
PD-L1 (human) [3] = molecular target: PD-L1 (human) (UniProt Q9NZQ7); test: flow cytometry, CHO cells expressing PD-L1
Target sequence in this assay (Q9NZQ7 19-290): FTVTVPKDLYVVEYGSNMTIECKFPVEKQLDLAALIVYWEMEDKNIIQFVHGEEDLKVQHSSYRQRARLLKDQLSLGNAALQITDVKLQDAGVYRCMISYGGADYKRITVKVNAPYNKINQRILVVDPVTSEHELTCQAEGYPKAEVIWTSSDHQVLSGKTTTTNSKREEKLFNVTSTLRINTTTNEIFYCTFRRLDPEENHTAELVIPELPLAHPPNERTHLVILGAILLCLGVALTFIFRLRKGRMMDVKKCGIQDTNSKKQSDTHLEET

human CTLA-4 (human) [4] = molecular target: human CTLA-4 (human) (UniProt P16410); test: flow cytometry, CHO cells expressing CTLA4
PD-L1 (human) [5] = molecular target: PD-L1 (human) (UniProt Q9NZQ7); test: flow cytometry, MFI on PD-L1 over MFI on CD28
Target sequence in this assay (Q9NZQ7 19-290): as above

human CTLA-4 (human) [6] = molecular target: human CTLA-4 (human) (UniProt P16410); test: flow cytometry, CHO/CTLA4 cells; MFI over CD80 WT IgV-Fc
PD-L1 (human) [7] = molecular target: PD-L1 (human) (UniProt Q9NZQ7); test: flow cytometry, CHO/PD-L1 cells; MFI over CD80 WT IgV-Fc
Target sequence in this assay (Q9NZQ7 19-290): as above

PD-L1 (human) [8] = molecular target: PD-L1 (human) (UniProt Q9NZQ7); test: flow cytometry, CHO cells stably expressing PD-L1
Target sequence in this assay (Q9NZQ7 19-290): as above

CD28 (human) [9] = molecular target: CD28 (human) (UniProt P10747); test: flow cytometry, Jurkat cells (CD28); MFI over CD80 WT IgV-Fc
human CTLA-4 (human) [10] = molecular target: human CTLA-4 (human) (UniProt P16410); test: flow cytometry, CHO cells stably expressing CTLA4
PD-L1 (human) [11] = molecular target: PD-L1 (human) (UniProt Q9NZQ7)
Target sequence in this assay (Q9NZQ7 19-290): as above

CD28 (human) [12] = molecular target: CD28 (human) (UniProt P10747); remark: listed apart in the source
human CTLA-4 (human) [13] = molecular target: human CTLA-4 (human) (UniProt P16410); test: flow cytometry, CHO cells expressing huCTLA-4
PD-L1 (human) [14] = molecular target: PD-L1 (human) (UniProt Q9NZQ7); test: flow cytometry, CHO cells expressing huPD-L1
Target sequence in this assay (Q9NZQ7 19-290): as above

CD28 (human) [15] = molecular target: CD28 (human) (UniProt P10747); test: flow cytometry, Jurkat/IL2 reporter cells (CD28)
human CTLA-4 (human) [16] = molecular target: human CTLA-4 (human) (UniProt P16410); test: flow cytometry, CHO cells expressing huCTLA4
PD-L1 (human) [17] = molecular target: PD-L1 (human) (UniProt Q9NZQ7); test: flow cytometry, CHO cells expressing huPD-L1; remark: listed apart in the source
CD28 (human) [18] = molecular target: CD28 (human) (UniProt P10747); test: flow cytometry, Jurkat/IL2 reporter cells (CD28); remark: listed apart in the source
PD-L1 (human) [19] = molecular target: PD-L1 (human) (UniProt Q9NZQ7); test: flow cytometry, CHO cells expressing huPD-L1; remark: listed apart in the source
CD28 (human) [20] = molecular target: CD28 (human) (UniProt P10747); test: flow cytometry, Jurkat/IL2 reporter cells (endogenous CD28)
PD-L1 (human) [21] = molecular target: PD-L1 (human) (UniProt Q9NZQ7); remark: listed apart in the source
CD28 (human) [22] = molecular target: CD28 (human) (UniProt P10747); remark: listed apart in the source
PD-L1 (human) [23] = molecular target: PD-L1 (human) (UniProt Q9NZQ7); remark: listed apart in the source
CD28 (human) [24] = molecular target: CD28 (human) (UniProt P10747); remark: listed apart in the source

Chain of human CTLA-4 (human) (P16410 36-223): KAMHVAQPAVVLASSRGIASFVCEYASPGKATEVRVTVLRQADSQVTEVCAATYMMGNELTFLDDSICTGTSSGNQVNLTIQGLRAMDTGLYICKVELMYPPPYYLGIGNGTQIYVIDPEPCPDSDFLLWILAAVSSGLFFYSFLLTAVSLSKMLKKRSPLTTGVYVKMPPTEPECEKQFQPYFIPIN

A Fold increase in IL2 reporter signal (Jurkat/IL2 reporter assay) (fold vs WT CD80 IgV-Fc) (CD28 (human) [1]) of 0.93 was found for “WT CD80 ECD-Fc (control of Table E5) (Fc fusion)” in this work.
A Fold change to WT CD80 (CD28 (human) [2]) of 0.5 fold, an MFI at 33.3 nM (CD28 (human) [2]) of 14.5 MFI and a Fold change to WT CD80 (PD-L1 (human) [3]) of 286 fold were found for “CD80 H18Y/E35D/M47L/V68M/E95V/L97Q IgV-Fc (Fc fusion)” in this work. The MFI at 33.3 nM (PD-L1 (human) [3]) was 14800 MFI, the Fold change to WT CD80 (human CTLA-4 (human) [4]) was 11.7 fold and the MFI at 33.3 nM (human CTLA-4 (human) [4]) was 20500 MFI. The Ratio of PDL1:CD28 (PD-L1 (human) [5]) was 1020.
An MFI at 33.3 nM (CD28 (human) [2]) of 4730 MFI, a Fold change to WT CD80 (human CTLA-4 (human) [6]) of 17.2 fold and a Fold change to WT CD80 (PD-L1 (human) [7]) of 203 fold were found for “variant CD80 IgV-Fc (inert) H18A/A26P/E35D/M47L/V68M/A71G/D90G (Fc fusion)” in this work. For the same substance, the MFI at 33.3 nM (PD-L1 (human) [8]) was 33400 MFI, the Fold change to WT CD80 (CD28 (human) [9]) was 46.4 fold and the MFI at 33.3 nM (human CTLA-4 (human) [10]) was 23800 MFI.
A Fold change to WT CD80 (CD28 (human) [2]) of 0.4 fold, an MFI at 33.3 nM (CD28 (human) [2]) of 14 MFI and a Fold change to WT CD80 (PD-L1 (human) [3]) of 280 fold were found for “CD80 H18Y/E35D/V68M/L85M/R94Q IgV-Fc (Fc fusion)” in this work. The MFI at 33.3 nM (PD-L1 (human) [3]) was 14400 MFI, the Fold change to WT CD80 (human CTLA-4 (human) [4]) was 11.3 fold and the MFI at 33.3 nM (human CTLA-4 (human) [4]) was 19800 MFI. For the same substance, the Ratio of PDL1:CD28 (PD-L1 (human) [5]) was 1040.
An RLU at 5.0 nM: Fold Increase over WT CD80-IgV-Fc (PD-L1 (human) [11]) of 2.5 fold and an RLU at 5.0 nM: Fold Increase over WT CD80-IgV-Fc (CD28 (human) [12]) of 2.5 fold were found for “CD80 IgV-Fc E35D/D46E/M47V/V68M/L85Q (Fc fusion)” in this work.
An RLU at 5.0 nM: Fold Increase over WT CD80-IgV-Fc (PD-L1 (human) [11]) of 0.5 fold and an RLU at 5.0 nM: Fold Increase over WT CD80-IgV-Fc (CD28 (human) [12]) of 0.5 fold were found for “CD80 IgV-Fc H18Y/E35D/M38I/M47L/V68M/L85M (Fc fusion)” in this work.
An MFI at 33.3 nM (human CTLA-4 (human) [13]) of 20900 MFI, an MFI at 33.3 nM (PD-L1 (human) [14]) of 14800 MFI and an MFI at 33.3 nM (CD28 (human) [15]) of 11700 MFI were found for “variant CD80 IgV-Fc E35D/M47V/N48K/V68M/K89N (Fc fusion)” in this work. The MFI at 33.3 nM (human CTLA-4 (human) [16]) was 807 MFI, the MFI at 33.3 nM (PD-L1 (human) [17]) was 89800 MFI and the MFI at 33.3 nM (CD28 (human) [18]) was 1350 MFI.
An MFI at 33.3 nM (human CTLA-4 (human) [16]) of 47600 MFI and an MFI at 33.3 nM (PD-L1 (human) [19]) of 47900 MFI were found for “variant CD80 IgV-Fc Q33L/E35D/M47V (Fc fusion)” in this work.
An MFI at 33.3 nM (CD28 (human) [15]) of 15500 MFI and an MFI at 33.3 nM (PD-L1 (human) [17]) of 29800 MFI were found for “variant CD80 IgV-Fc E35D/M47I/Y87Q/K89E (Fc fusion)” in this work.
An MFI at 33.3 nM (human CTLA-4 (human) [16]) of 8660 MFI and an MFI at 33.3 nM (PD-L1 (human) [19]) of 36900 MFI were found for “variant CD80 IgV-Fc E35D/M47I/K54R/L85E (Fc fusion)” in this work.
An RLU at 5.0 nM: Fold Increase over WT CD80-IgV-Fc (PD-L1 (human) [11]) of 2.4 fold and an RLU at 5.0 nM: Fold Increase over WT CD80-IgV-Fc (CD28 (human) [12]) of 2.4 fold were found for “CD80 IgV-Fc V22D/E24D/E35D/M47L/V68M/L85M/D90G (Fc fusion)” in this work.
An MFI at 33.3 nM (CD28 (human) [15]) of 18000 MFI, an MFI at 33.3 nM (CD28 (human) [20]) of 7630 MFI and an MFI at 33.3 nM (PD-L1 (human) [17]) of 11900 MFI were found for WT CD80 ECD-Fc (R&D) (Fc fusion) in this work. The MFI at 33.3 nM (PD-L1 (human) [19]) was 7940 MFI.
An MFI at 33.3 nM (CD28 (human) [20]) of 282 MFI and an MFI at 33.3 nM (PD-L1 (human) [19]) of 36100 MFI were found for “variant CD80 IgV-Fc Q27H/E35D/M47L/L85Q/R94Q/E95K (Fc fusion)” in this work.
A Fold change to WT CD80 (CD28 (human) [2]) of 0.5 fold, an MFI at 33.3 nM (CD28 (human) [2]) of 14 MFI and a Fold change to WT CD80 (PD-L1 (human) [3]) of 361 fold were found for “CD80 E35D/M47L/V68M/E95V/L97Q IgV-Fc (Fc fusion)” in this work. It also gave an MFI at 33.3 nM (PD-L1 (human) [3]) of 18600 MFI, a Fold change to WT CD80 (human CTLA-4 (human) [4]) of 8.5 fold and an MFI at 33.3 nM (human CTLA-4 (human) [4]) of 15000 MFI. For the same substance, the Ratio of PDL1:CD28 (PD-L1 (human) [5]) was 1300.
An MFI at 33.3 nM (CD28 (human) [20]) of 258 MFI and an MFI at 33.3 nM (PD-L1 (human) [19]) of 44400 MFI were found for “variant CD80 IgV-Fc Q33R/E35D/K37E/M47V/L85Q (Fc fusion)” in this work.
A Jurkat/IL2 reporter RLU at 50 nM, CHO/OKT3/PD-L1 aAPC (PD-L1 (human) [21]) of 476 RLU, a Jurkat/IL2 reporter RLU at 50 nM, CHO/OKT3/PD-L1 aAPC (CD28 (human) [22]) of 476 RLU and a Jurkat/IL2 reporter RLU at 50 nM, CHO/OKT3 aAPC without PD-L1 (CD28 (human) [22]) of 440 RLU were found for “CD80 E35G/K54E/A71D/L72P IgV-Fc (inert) (Fc fusion)” in this work. The IL-2 release, primary T cells + K562/OKT3/PD-L1, 100 nM (PD-L1 (human) [23]) was 59 and the IL-2 release, primary T cells + K562/OKT3/PD-L1, 100 nM (CD28 (human) [24]) was 59.
A Jurkat/IL2 reporter RLU at 50 nM, CHO/OKT3/PD-L1 aAPC (PD-L1 (human) [21]) of 3780 RLU, a Jurkat/IL2 reporter RLU at 50 nM, CHO/OKT3/PD-L1 aAPC (CD28 (human) [22]) of 3780 RLU and a Jurkat/IL2 reporter RLU at 50 nM, CHO/OKT3 aAPC without PD-L1 (CD28 (human) [22]) of 894 RLU were found for “CD80 E35D/M47I IgV-Fc (inert) (Fc fusion)” in this work. The IL-2 release, primary T cells + K562/OKT3/PD-L1, 100 nM (PD-L1 (human) [23]) was 8310 and the IL-2 release, primary T cells + K562/OKT3/PD-L1, 100 nM (CD28 (human) [24]) was 8310.
A Fold change to WT CD80 (CD28 (human) [2]) of 48.3 fold, an MFI at 33.3 nM (CD28 (human) [2]) of 1520 MFI and a Fold change to WT CD80 (PD-L1 (human) [3]) of 328 fold were found for “CD80 E35D/M43I/M47L/V68M IgV-Fc (Fc fusion)” in this work. It also gave an MFI at 33.3 nM (PD-L1 (human) [3]) of 16900 MFI, a Fold change to WT CD80 (human CTLA-4 (human) [4]) of 9.3 fold and an MFI at 33.3 nM (human CTLA-4 (human) [4]) of 16200 MFI. It also gave a Ratio of PDL1:CD28 (PD-L1 (human) [5]) of 11.1.
An MFI at 33.3 nM (human CTLA-4 (human) [13]) of 12900 MFI, an MFI at 33.3 nM (PD-L1 (human) [14]) of 6100 MFI and an MFI at 33.3 nM (human CTLA-4 (human) [16]) of 336000 MFI were found for “variant CD80 IgV-Fc E35D/M47L/L85Q (Fc fusion)” in this work. For the same substance, the MFI at 33.3 nM (CD28 (human) [20]) was 646 MFI, the MFI at 33.3 nM (PD-L1 (human) [19]) was 33200 MFI and the MFI at 33.3 nM (CD28 (human) [18]) was 46.3 MFI.
An MFI at 33.3 nM (CD28 (human) [2]) of 4910 MFI, a Fold change to WT CD80 (human CTLA-4 (human) [6]) of 15.4 fold and a Fold change to WT CD80 (PD-L1 (human) [7]) of 220 fold were found for “variant CD80 IgV-Fc (inert) H18A/A26N/E35D/M47L/V68M/A71G/D90G (Fc fusion)” in this work. For the same substance, the MFI at 33.3 nM (PD-L1 (human) [8]) was 36300 MFI, the Fold change to WT CD80 (CD28 (human) [9]) was 48.2 fold and the MFI at 33.3 nM (human CTLA-4 (human) [10]) was 21400 MFI.
